molecular target: T1, SARS-CoV-2 spike HexaPro (S) (SARS-CoV-2, Wuhan-Hu-1, UniProt P0DTC2, stabilised); experiment: cryo-EM structure

| Binder | binding result |
| --- | --- |
| psNb 2-57 (VHH) VHH: QVQLVESGGGLVQAGGSLRLSCAVSGRTISTFGMGWFRQAPGKEREFVATITRDEDMLLYADSVKGRFTISRDTAKNMVFLQMNSLKIEDTALYYCAVRRDSSWGYSRQSTEYDYWGQGTQVTVSS | binds |
| psNb 2-38 (VHH) VHH: QVQLVESGGGLVQAGGSLRLSCAAAARFSTSAMGWFRQAPGKEREFVAAISWSNTNTHYADTVKGRFTISADTAKETVDLQMNSLKPEDTAVYYCVQGGWGIRQPIIVDYWGKGTQVTVSS | binds |
| psNb 2-34 (VHH) VHH: HVQLVESGGGLVQAGGSLRLSCAASGRTFSRYAAGWFRQAPGKEREFVAVIEWDGDSAYYADPVKGRFTISRDNAKNTVYLQMNRLKPEDTAVYICAVGGNHYSRSKYYNLDEYDDWGQGTQVTVSS | binds |
| psNb 1-22 (VHH) VHH: HVQLVESGGGLVQPGGSLRLSCAASGRSFNSYLMGWFRQAPGKEREFVAWISGSPHDIIRYRDSVKDRFTISRDNAKNTVYLQMNSLKPVDTAVYYCAVGSLRVGSFSPDYWGQGTQVTVSS | binds |
| psNb 1-23 (VHH) VHH: QVQLVESGGGLVQAGGSLRLSCAASGRTDSISDMGWFRQAPGKEREFVAVVGWSGGGTDYAHSVKGRFTISRDNAKNTVYLQMNSLKPEDTAVYYCAVGSLRVGSFSVEYWGQGTQVTVSS | binds |
| psNb 2-65 (VHH) VHH: HVQLVESGGGLVQAGGSLRLSCAASGTISTLNAMGWYRQAPGKQRELLASISNLGTTYHADSVAGRFTISRGSAKNTVNLQMNSLKPDDTAVYYCNTRVLEGGTQIRDYWGQGTQVTVSS | binds |
| psNb 2-45 (VHH) VHH: QVQLVESGGGLVQAGGSLRLSCTASGYDFSILAIAWYRQAPGKERELVAAISRVGSTDYADSVKGRFTISRDNTKNTVSLQMDSLKPEDTAVYYCNAGIPMTTVLSGLGFWGQGTQVTVSS | binds |

molecular target: T1, SARS-CoV-2 spike HexaPro (S); experiment: ELISA

| Binder | binding result |
| --- | --- |
| psNb 2-67 (VHH) VHH: EVQLVESGGGLVQTGGSLRLSCALSGYTFSIFPTAWFRQAPGKEREFVAGIRWNGSTRDYTEYADFVKGRFTISRDNAKNMVYLQMISLKPEDTALYYCAASDGVIDGTNANAYRYWGQGTQVTVSS | binds |
| psNb 2-31 (VHH) VHH: QVQLVESGGGLVQAGESLRLSCAASKPTFRNFAAGWFRQTPGKDREFVAVIEYDGDSAYYADSVKGRFTISRDNAKNTVYLQMNRLKPGDTAVYICAIGGNHYDPSKYYTADEYDYWGQGTQVTVSS | binds |
| psNb 1-21 (VHH) VHH: HVQLVESGGGLVQAGGSLRLSCAAPGRTFSTSAMGWFRQAPGKEREFVAAIDWSNTNIHYADTVKGRFTISTDTAKNTVYLQMNNLKPEDTAVYYCAQGGWGLTQPISVDYWGKGTQVTVSS | binds |
| psNb 1-25 (VHH) VHH: HVQLVESGGGLVQAGGSLRLSCATSGRTFSTYRMSWFRQAPGKEREFVATIIWSVGSTHYADSVKGRFTISRDNAKNMVYLQMNSLKPEDTAVYYCAAQRSDSSSWGYEDDYDYWGQGTQVTVSS | binds |

Source: publication doi:10.1101/2021.12.26.474192 (bioRxiv, 2021)
